{"source": "patent US12630594B2", "about": "“Allergy antigen and epitope for same” (HOYU CO., LTD., priority 2017, dated 2026)", "data": [{"tested_on": "IgE antibody in the serum of a fish-allergic patient", "assay": "Immunoblotting of two-dimensional electrophoresis patterns of fish meat proteins with patient serum", "type": "binding, human", "settings": "spots in two-dimensional electrophoresis gel of proteins in fish; patients diagnosed with immediate-type allergy", "method": "Proteins contained in fish were analyzed by the aforementioned technique to identify antigens of an allergy to fish. To be specific, proteins were extracted from fish meat and subjected to two-dimensional electrophoresis under the conditions described below.\nThe electrophoresis in the first dimension was isoelectric focusing, which was performed using isoelectric focusing gels with a gel-strip length of 5 to 10 cm and a gel pH range of 3 to 10. The pH gradient of the gels in the direction of electrophoresis was as follows: with the total gel-strip length being taken as 1, the gel-strip length up to pH 5 was “a=0.15 to 0.3”, the gel-strip length from pH 5 to 7 was “b=0.4 to 0.7”, and the gel-strip length above pH 7 was “c=0.15 to 0.3”. More specifically, the isoelectric focusing was performed using the IPG gels, Immobiline Drystrip (pH3-10NL), produced by GE Healthcare Bio-Sciences Corporation (hereinafter abbreviated as “GE”). The electrophoresis system used was IPGphor produced by GE. The maximum current of the electrophoresis system was limited to 75 μA per gel strip. The voltage program adopted to perform the first-dimensional isoelectric focusing was as follows: (1) a constant voltage step was performed at a constant voltage of 300 V until the volt-hours reached 750 Vhr (the current variation width during electrophoresis for 30 minutes before the end of this step was 5 μA); (2) the voltage was increased gradually to 1000 V for 300 Vhr; (3) the voltage was further increased gradually to 5000 V for 4500 Vhr; and then (4) the voltage was held at a constant voltage of 5000 V until the total Vhr reached 12000.\nThe electrophoresis in the second dimension was SDS-PAGE, which was performed using polyacrylamide gels whose gel concentration at the distal end in the direction of electrophoresis was set to 3 to 6% and whose gel concentration at the proximal end was set to a higher value than that at the distal end. More specifically, the SDS-PAGE was performed using NuPAGE 4-12% Bris-Tris Gels (IPG well, Mini, 1 mm) produced by Life Technologies. The electrophoresis system used was XCell SureLock Mini-Cell produced by Life Technologies. The electrophoresis was run at a constant voltage of 200 V for about 45 minutes using an electrophoresis buffer composed of 50 mM MOPS, 50 mM Tris base, 0.1% (w/v) SDS and 1 mM EDTA.\nIdentification of antigens by immunoblotting was carried out by taking all the steps up to the step of “Second-dimensional SDS-PAGE” as described above in Example 1, followed by the steps of “Transfer to membrane”, “Immunoblotting” and “Analysis” as described below.\nTo be specific, proteins in the second-dimensional electrophoresis gels were transferred to a membrane (PVDF membrane) according to the following procedure. • (1) The PVDF membrane was immersed in 100% methanol followed by milliQ water, and then moved into the transfer buffer to hydrophilize the PVDF membrane. • (2) After sponge, filter paper, the second-dimensional electrophoresis gels treated by second-dimensional SDS-PAGE, the hydrophilized PVDF membrane, filter paper, and sponge were put in place in this order, the transfer system was energized at a constant voltage of 30 V for one hour. Immunoblotting\nImmunoblotting of the membrane was carried out using, as a primary antibody, a serum sample from patient 1 with a fish allergy or a serum sample from a non-fish-allergic subject. This fish-allergic patient 1 was a patient diagnosed with immediate-type allergy to fish. […]", "values": [{"molecule": "EEF1A2 binding protein-like (protein, EEF1A2 binding protein-like) MWKKKSKLTDQTATGQVGIKKRSKVPGVMITQYVEKIPDGKSHPDFTRKPIALTIQEGKFAFFKALVIGDPEPTVTWGRNNGDVSDTSKYVTKYDPATREHLFEMANVKPEQADTYKCFAANEFGRAVVTVVLNVIEVGFKKAQADSQVQPEAAVADFKSVLKRKSKIQPKMEKKEDGEIDPRFWELLISADKKDYESLMLEFGVTDFRFMLKTLNEIKKEREEEQAQFIENLANLKPIEVGPDGCATFSIDMDLIEQSSRIFLYKDGVMIPYSKELGDTIKHSLKIVGRKYQFSIRDLFPDDAGLYQVDVEDVNVFSTDFKIPMVDFLVKIQECKAMEREDAVFECVLSQPFGKIMWVGKNLPLEAGDKYDIEVSEDKLIHRLIIKDVAMVDKGIYAAVAGIKSCNAFLVVEADKGEPGKKKQRKTTRAGGAGVDLTAIAQEQAVKNTADREVLKEKVKAINDERAANATAAPETSAEAKAKVKVVEASQTGAPKQGPAVKGSDHKSVDNEGYSIKSGLSDVFALRGKKGELVCEMSHEVDGAWFKDGEKLSTTDGIAIVKDGTRHTMTIHSSSEDDTGVYHIEAGGFKSEAKVTVGELPAIDADDLHKFSKPVTIKVGQNASWKMPYTPQDNLEVKWFKDGKELKDGGGVKLVKEVKHSRLLLRECLRSDAGEIKIQLKNPFGTIEATSRLIVLDKPGPPEGPVEILETTSTVIELQWGAPKDDGGSPVTNYIIERQQLGQTVWKKMGDVAADKTTYRDRNVVHGKLYIYNIYAVNPEGTSDALQTEETMAGVLIFAGRPGAPKVVSASKTCINLKWEPPEDDGGIKIDGYQLEKRKKDTAQWIALNPVTEPIEVLEYAVKDVVEGAEYEFRVSAINVSGAGEFSLPSVMVTAKNPNMRPTFKDPEDFMVIRAGNSVRIKVLYEAEPPPEITWMKDNEPVSSFIQIINTEGCSQLVIPSTKRSDSGNYTIVAKNKVGEASFDIEVLVTDEPKPPGAVELEQIVHGKVIVSWEASPDQELDNRLYYMVAEHDSSTRMWHTVADRIFDNSYTANNIMPGREYHFKIYAKNDMGMSDPSMSPTWGINSNRIPINTNTPVEVSFEKPPSVLVPLKMHSPPKGFQMYMTCAIRGCPTPSVTWHLNNVCINGDSNYYITNSYGVCSMYILRVRPKDAGEYKVVAVNSFGKAECSTKLVVKD", "specific binding to IgE antibodies from fish-allergic patients": "specific binding to IgE antibodies"}, {"molecule": "Alpha-1,4-glucan phosphorylase (protein, Alpha-1,4 glucan phosphorylase) MSKPLSDHDRKKQISVRGLAGVENVAELKVAFNRHLHFTLVKDRNVASKRDYYFALANTVRDHLVGRWIRTQQYYYEKDPKRVYYISLEFYMGRTLQNTMVNLALENACDEAIYQLGLDMEELEDMEEDAGLGNGGLGRLAACFLDSMASLGLAAYGYGIRYEFGIFNQKIVNGWQVEEADDWLRYGNPWEKARPEYMRPVKFYGRTEHTPEGVKWVDTQVVLALPYDTPIPGYRNNIVNTMRLWSAKAPCDFNLKDFNVGGYIQAVLDRNLCENISRVLYPNDNFFEGKELRLKQEYFVVAATLQDIVRRFKASKFGSREIVRTDFAQLPNKVAIQLNDTHPAMAIPELMRVLVDEEKLEWDKAWDVCVRTCAYTNHTVLPEALERWPIDLFHHLLPRHLEIIYEINRRFLQYVASKFPGDNDRLRRMSLIEEGECKKVNMAHMCIVGSHAVNGVARIHSEILVATLFKDFYELDPHKFQNKTNGITPRRWLVMCNPGLAEVIAERIGEEFVRDLDQLKKLLKFIDDDAFIRDIAKVKQENKLKFAVHLEEHYKVKINPQSMFDFQVKRIHEYKRQLLNCLHMITYYNRIKKEPNKHWTPRTIMVGGKAAPGYHTAKMIIRLITAIGEVVNHDPVIGDRLKVIFLENYRVTLAEKAIPSADLSEQISTAGTEASGTGNMKFMLNGALTIGTMDGANVEMAEEAGEKNLFIFGMRVEEVDAMDAGKGYHASEYYNRIPELKQAMDQISGGFFSHKQPDLFKELVDLLMHHDRFKVFADYEAYIKSQDKVNELYKKPKEWTKMVIHNIAGCGKFSSDRTISQYAREIWGMEPSLEKIPAPDEQLK", "specific binding to IgE antibodies from fish-allergic patients": "specific binding to IgE antibodies"}, {"molecule": "Serotransferrin (protein, Serotransferrin) MKLLLVSALLGCFATVYAAPAEGMVRWCVKSEKELKKCHDLAANVAGFSCVRRDDSLECIQAIKREEADAITLDGGDIYIAGLHNYNLQPIIAEDYGEDSDTCYYAVAVAKKGTEFGFLDLRGKKSCHTGLGKSAGWNIPIGTLVTVGQIQWAGIEDRPVESAVSDFFNASCAPGANRDSQLCQLCMGDCSRSHNEPYYDYSGAFQCLKDGAGEVAFIKHLTVPAAEKASYELLCKDNTRAPIDSYKTCHLARVPAHAVVSRKDPRLANLIYSKLMAVTNFNLFSSDGYAAKNLMFKDSTQNLVQLPMTTDSFLYLGAEYMSTIRSLTKAQATGVTSRAIKWCAVGHKEKVKCDAWTINSFTDGDSRIECQDAPTVDECIKKIMRKEADAIAVDGGEVFTAGKCGLVPVMVEQYDEVRCSAPGEASSYFAVAVAKRGSGLTWTTLKGKRSCHTGLGRTAGWNIPMGLIHRRTMNCDFTTYFSKGCAPGFEVDSPFCAQCKGSGKSVGGDGSKCKASSEEQYYGYNGAFRCLVEDAGDVAFIKHTIVPEMTDGSGPVWAQNLMSSDFELLCQDGTTKPVTHFRECHLAKVPAHAVITRPESRGEVVSILLEQQARFGSSGSDSSFNMFKPDFGKNLLFKDSTKCLQEIPSGTKFQGFLGEEYMIAMQSLRECSNSTSDLEKACTFHSC", "specific binding to IgE antibodies from fish-allergic patients": "specific binding to IgE antibodies"}]}]}
